Variants at the floor of the assay were thinned out.
B1: TPR 5TU (parent)
chain: GGAUCUUCUCGAUCUAACAAAAAAGACAAAUCUGCCACAAAGCUUGAGAGCAUCUUCGGAUGCAGAGGCGGCAGCCUUCGGUGGCGCGAUAGCGCCAACGUUCUCAACUAUGACACGCAAAACGCGUGCUCCGUUGAAUGGAGUUUAUCAUG

Variants of: B1
Assay: polymerase ribozyme fitness, log enrichment relative to wild type (log ratio); higher = more active; in vitro selection for triplet polymerase activity
How it was run: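 A single round of triplicate in vitro selection, including frozen incubation at −7 °C, was applied to PCR-built, transcribed mutant libraries of each subunit of a heterodimeric triplet polymerase ribozyme. Illumina sequencing of input and output libraries retained genotypes with ≥10 input reads and ≥1 read per output. Fitness is the base-2 logarithm of genotype enrichment divided by wild-type enrichment, from inverse-variance-weighted replicate averages.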

Row | Variant | polymerase ribozyme fitness (log ratio)
1 | C14U C32G U33G A47U U53A G74A C95G A106G U135A | ≤ -4.2
2 | C14U U15C A23U A41U C85A | ≤ -4.2
3 | C14U A40G U56A G59C C76U A121U | -4.02
4 | C14G U55G C57U G86C C125G A137U | ≤ -4.2
5 | C14G G59A A73U C87G | ≤ -4.2
6 | C14U C72A C85G G133U | ≤ -4.2
7 | C14U C87U U101C C118G | -3.29
8 | C14U C54U G68C G84C C87G A91C A147C | ≤ -4.2
9 | C14U C85A G140A | ≤ -4.2
10 | C14U A20C U33A C93G C103G C118U | ≤ -4.2
11 | C14U C87U U102C | -4.18
12 | C14U G34U G68A C85U U144A C149A | ≤ -4.2
13 | C14U C93U U127A C131A | ≤ -4.2
14 | C14U C93A | -3.4
15 | C14G U31A G68A G86A A91G C108A C118G | ≤ -4.2
16 | C14U C118U | -1.65
17 | C14G G50U C95U C96U A115G | -4.1
18 | C14G C63U G67C U77A C85A G124C | ≤ -4.2
19 | C14U G84U A107U A147U | ≤ -4.2
20 | C14U A19U U55A | -1.9
21 | C14G U15G A19C A22C A41G G58C C93U | -3.91

Row | Variant | polymerase ribozyme fitness (log ratio)
22 | C14G U127G | -4.18
23 | C14G C99G | -3.32
24 | C14U A29U G71A G88C C93A | ≤ -4.2
25 | C14U U135C | -3.88
26 | C14G G50C A66G C85G A106G | ≤ -4.2
27 | C14U A17C C18G A20G G59U C85U A91U C118U G140A | ≤ -4.2
28 | C14G G83U | -2.05
29 | C14G G88C A137U | ≤ -4.2
30 | C14U A16C C57G G83U C85U A107G G140C A142C | ≤ -4.2
31 | C14U C54U C87A A89G C96U A121U A142C | ≤ -4.2
32 | C14U G94C | -2.9
33 | C14U G94A | -1.85
34 | C14G C85U C96U A113C A122U G143A | ≤ -4.2
35 | C14G G84A | -2.16
36 | C14G U82A G84A C87U C118G | -3.78
37 | C14G C85A C116U A122C | ≤ -4.2
38 | C14G U15C G84U | -1.26
39 | C14U C63U C85A A115G | -3.56
40 | C14U G92A C103G | ≤ -4.2
41 | C14G C76G A89C C93G C95G U127G U151G | ≤ -4.2
42 | C14U C57U | -1.27

Row | Variant | polymerase ribozyme fitness (log ratio)
43 | C14G C87U C149A | ≤ -4.2
44 | C14U C105G | -3.25
45 | C14U A28U C96G | ≤ -4.2
46 | C14G U33C U56A C85A C99G G117U C123U | -3.91
47 | U15A A16G G58U C69G C85U A89U C96U C108U | ≤ -4.2
48 | C14U A21G A49G | -2.56
49 | C14U U144G | -0.898
50 | C14U A17U A19C U44A G68A A73G G86U C96U C149G | ≤ -4.2
51 | C14U A19U C87U C99A | -3.91
52 | C14G C85U | -2.1
53 | C14G U33C G84U G94A | -4.16
54 | C14G U53A C54A U61G G62U U146C | ≤ -4.2
55 | C14U A52U C54A G83U C96G A98U | -3.86
56 | C14U G83U G88C A147G | ≤ -4.2
57 | C14U A17U A24U C76A C85U | -3.79
58 | C14U A20U A24U G42A A49C C57A A60C U104G C114A A115C | ≤ -4.2
59 | C14U A73U U78G C87G A122U C123U | ≤ -4.2
60 | C14G U15G C18G U55G G68A | ≤ -4.2
61 | C14U G59A C85U U134A | -4.12
62 | C14U G67A U151C | ≤ -4.2
63 | C14U C27G A37U A39G A66C U77A U78G C85U A89U C95G | ≤ -4.2

Row | Variant | polymerase ribozyme fitness (log ratio)
64 | C14U A52C U56A A97U A98U | -4.07
65 | C14G C85A C95G C103U U146A | ≤ -4.2
66 | C14G C75U G94C A122U G124A | -3.86
67 | C14U A19C C76U C99U | -3.03
68 | C14U G74A G94A A122G | ≤ -4.2
69 | C14U G50U | -1.15
70 | C14U G50C | -3.52
71 | C14G G133U | ≤ -4.2
72 | C14U A64G A91U C105G | ≤ -4.2
73 | C14U C18A A28U C54A A91G U148G | ≤ -4.2
74 | C14U G67A G88A G136U | ≤ -4.2
75 | C14U A17U A24G A41C C51U U56A C93A A115C | ≤ -4.2
76 | C14U A47C G50A G70A U77C C85A C125G C132A A142U | ≤ -4.2
77 | C14G G25C A47U G50A C93A U102A G124C | ≤ -4.2
78 | C14U C35A A40G G84A | ≤ -4.2
79 | C14U U31A A64C C75A C93G C103U | ≤ -4.2
80 | C14U C27U U90C A91U C116G | -3.77
81 | C14G C93A | -3.68
82 | C14G U31G | -2.12
83 | C14G G59C C69A A142G | ≤ -4.2
84 | C14G G50A G58C U82C G141C | -4.17
